In patent US20180334496A1 one finds Mut1 Binding (% wt) data, which are given here for one molecule.

This assay has as its target recombinant human CFD mutant 1 (R157A, R207A), His-tagged (human) (UniProt P00746). The assay is described as follows: ELISA.

Chain of recombinant human CFD mutant 1 (R157A, R207A), His-tagged (human) (P00746 26-253 R182A/R232A limits assumed): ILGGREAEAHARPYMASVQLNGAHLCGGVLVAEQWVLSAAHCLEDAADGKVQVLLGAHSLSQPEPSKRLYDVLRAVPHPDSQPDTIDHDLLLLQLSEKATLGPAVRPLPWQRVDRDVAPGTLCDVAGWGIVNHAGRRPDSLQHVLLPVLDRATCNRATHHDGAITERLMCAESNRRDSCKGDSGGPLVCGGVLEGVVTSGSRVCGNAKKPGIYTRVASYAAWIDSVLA

B1: KCD119 (antibody, V domains shown)
VH: EVQLQQSGPELVKPGASVKISCKASGYTFTDYYTNWMRQRHGESLEWIGDINPNTGDTSYNQKFRVKATLTVDKSSGTAYMGLRSLTSEDSAVYYCTREGPSFAYWGQGTLVTVSA
VL: DVLMTQTPLSLPVSLGDQASISCRSSQTIVHSNGDTYLEWYLQKPGQSPNLLIYKVSNRFSGVPDRFSGSGSGTDFTLKISRVEAEDLGVYYCFQGSHVPPTFGGGTTLEIK
In the case of B1, the Mut1 Binding (% wt) was determined as 13.6 % wt.
